Measurements taken from the RNAGym collection of RNA variant scans (doi:10.7554/elife.80360).

B1: Hammerhead Ribozyme (parent)
chain: ACCGGAUGUGCUUUCCGGUCUGAUGAGUCCGUGAGGACGAAACAG

Variants of: B1
Assay: self-cleavage, relative activity (ratio to wild type); higher = more cleavage; co-transcriptional
Work on ACUGGAUGUGCUUUCCGGUCUGAUGAGUCCGUAAGGACGAAACAG [C3U G33A] yielded a self-cleavage of 0.953. For ACUGGAUGUGCUUUCCGGUCUGAUGAGUCCGUUAGGACGAAACAG [C3U G33U], the self-cleavage was 0.991. In the case of ACUGGAUGUGCUUUCCGGUCUGAUGAGUCCGUCAGGACGAAACAG [C3U G33C], the self-cleavage is reported as 0.957. In the case of ACUGGAUGUGCUUUCCGGUCUGAUGAGUCCGUGGGGACGAAACAG [C3U A34G], the self-cleavage is reported as 0.91. ACUGGAUGUGCUUUCCGGUCUGAUGAGUCCGUGCGGACGAAACAG [C3U A34C] gave a self-cleavage of 0.851. Work on ACUGGAUGUGCUUUCCGGUCUGAUGAGUCCGUGUGGACGAAACAG [C3U A34U] yielded a self-cleavage of 0.947. In the case of ACUGGAUGUGCUUUCCGGUCUGAUGAGUCCGUGAGGACGAAACUG [C3U A44U], the self-cleavage is reported as 0.592. ACUGGAUGUGCUUUCCGGUCUGAUGAGUCCGUGAGGACGAAACCG [C3U A44C] showed a self-cleavage of 0.522. ACUGGAUGUGCUUUCCGGUCUGAUGAGUCCGUGAGGACGAAACGG [C3U A44G] showed a self-cleavage of 1.49. In the case of ACUGGAUGUGCUUUCCGGUCUGAUGAGUCCGUGAGGUCGAAACAG [C3U A37U], the self-cleavage is reported as 0.794. ACUGGAUGUGCUUUCCGGUCUGAUGAGUCCGUGAGGGCGAAACAG [C3U A37G] showed a self-cleavage of 0.799. ACUGGAUGUGCUUUCCGGUCUGAUGAGUCCGUGAGGCCGAAACAG [C3U A37C] showed a self-cleavage of 0.566. ACGGGAUGUGCUUUCCGGUCAGAUGAGUCCGUGAGGACGAAACAG [C3G U21A] gave a self-cleavage of 0.236. Work on ACGGGAUGUGCUUUCCGGUCGGAUGAGUCCGUGAGGACGAAACAG [C3G U21G] yielded a self-cleavage of 0.298. With ACGGGAUGUGCUUUCCGGUCCGAUGAGUCCGUGAGGACGAAACAG [C3G U21C] the self-cleavage was 0.413. With ACGGGAUGUGCUUUCCGGUCUGAUGAGGCCGUGAGGACGAAACAG [C3G U28G] the self-cleavage was 0.356. For ACGGGAUGUGCUUUCCGGUCUGAUGAGCCCGUGAGGACGAAACAG [C3G U28C], the self-cleavage was 0.447. In the case of ACGGGAUGUGCUUUCCGGUCUGAUGAGACCGUGAGGACGAAACAG [C3G U28A], the self-cleavage is reported as 0.376. With ACUGGAUGUGCUUUCCGGUCUAAUGAGUCCGUGAGGACGAAACAG [C3U G22A] the self-cleavage was 0.381. With ACUGGAUGUGCUUUCCGGUCUCAUGAGUCCGUGAGGACGAAACAG [C3U G22C] the self-cleavage was 0.341. For ACUGGAUGUGCUUUCCGGUCUUAUGAGUCCGUGAGGACGAAACAG [C3U G22U], the self-cleavage was 0.381. With ACUGGAUGUGCUUUCCGGUCUGAUGCGUCCGUGAGGACGAAACAG [C3U A26C] the self-cleavage was 0.394. Variant ACUGGAUGUGCUUUCCGGUCUGAUGGGUCCGUGAGGACGAAACAG [C3U A26G] has a self-cleavage of 0.366. Variant ACUGGAUGUGCUUUCCGGUCUGAUGUGUCCGUGAGGACGAAACAG [C3U A26U] has a self-cleavage of 0.624. Variant ACUGGCUGUGCUUUCCGGUCUGAUGAGUCCGUGAGGACGAAACAG [C3U A6C] has a self-cleavage of 0.437. In the case of ACUGGGUGUGCUUUCCGGUCUGAUGAGUCCGUGAGGACGAAACAG [C3U A6G], the self-cleavage is reported as 0.747. ACUGGUUGUGCUUUCCGGUCUGAUGAGUCCGUGAGGACGAAACAG [C3U A6U] gave a self-cleavage of 0.609. ACUGGAUGUGCUUUUCGGUCUGAUGAGUCCGUGAGGACGAAACAG [C3U C15U] showed a self-cleavage of 0.984. In the case of ACUGGAUGUGCUUUGCGGUCUGAUGAGUCCGUGAGGACGAAACAG [C3U C15G], the self-cleavage is reported as 0.382. Variant ACUGGAUGUGCUUUACGGUCUGAUGAGUCCGUGAGGACGAAACAG [C3U C15A] has a self-cleavage of 0.486. In the case of ACGGGAUGUGCUUGCCGGUCUGAUGAGUCCGUGAGGACGAAACAG [C3G U14G], the self-cleavage is reported as 0.557. With ACUGGAUGUGCUUUCCGGUCUGAUGAGUCCGUGAAGACGAAACAG [C3U G35A] the self-cleavage was 0.487. For ACUGGAUGUGCUUUCCGGUCUGAUGAGUCCGUGACGACGAAACAG [C3U G35C], the self-cleavage was 0.625. ACUGGAUGUGCUUUCCGGUCUGAUGAGUCCGUGAUGACGAAACAG [C3U G35U] gave a self-cleavage of 0.761. Variant ACUAGAUGUGCUUUCCGGUCUGAUGAGUCCGUGAGGACGAAACAG [C3U G4A] has a self-cleavage of 0.387. With ACUCGAUGUGCUUUCCGGUCUGAUGAGUCCGUGAGGACGAAACAG [C3U G4C] the self-cleavage was 0.3. For ACUUGAUGUGCUUUCCGGUCUGAUGAGUCCGUGAGGACGAAACAG [C3U G4U], the self-cleavage was 0.302. In the case of ACGGGAUGUGCUUUCCGGCCUGAUGAGUCCGUGAGGACGAAACAG [C3G U19C], the self-cleavage is reported as 0.31. In the case of ACGGGAUGUGCUUUCCGGGCUGAUGAGUCCGUGAGGACGAAACAG [C3G U19G], the self-cleavage is reported as 0.306. In the case of ACGGGAUGUGCUUUCCGGACUGAUGAGUCCGUGAGGACGAAACAG [C3G U19A], the self-cleavage is reported as 0.265. ACGGGAUGUGCUUUCCGGUCUGAGGAGUCCGUGAGGACGAAACAG [C3G U24G] showed a self-cleavage of 0.44. ACGGGAUGUGCUUUCCGGUCUGAAGAGUCCGUGAGGACGAAACAG [C3G U24A] gave a self-cleavage of 0.511. In the case of ACGGGAUGUGCUUUCCGGUCUGACGAGUCCGUGAGGACGAAACAG [C3G U24C], the self-cleavage is reported as 0.477. ACUGGAUGUGCUUUCCGGUCUGAUGAGUCCGUGAGGACGAAACAA [C3U G45A] gave a self-cleavage of 0.468. Variant ACUGGAUGUGCUUUCCGGUCUGAUGAGUCCGUGAGGACGAAACAC [C3U G45C] has a self-cleavage of 0.579. In the case of ACUGGAUGUGCUUUCCGGUCUGAUGAGUCCGUGAGGACGAAACAU [C3U G45U], the self-cleavage is reported as 0.599. In the case of ACUGGAUGUCCUUUCCGGUCUGAUGAGUCCGUGAGGACGAAACAG [C3U G10C], the self-cleavage is reported as 1.05. Work on ACUGGAUGUACUUUCCGGUCUGAUGAGUCCGUGAGGACGAAACAG [C3U G10A] yielded a self-cleavage of 1.47. In the case of ACUGGAUGUUCUUUCCGGUCUGAUGAGUCCGUGAGGACGAAACAG [C3U G10U], the self-cleavage is reported as 1.22. Work on ACUGGAUGUGCUUUCAGGUCUGAUGAGUCCGUGAGGACGAAACAG [C3U C16A] yielded a self-cleavage of 0.476. ACUGGAUGUGCUUUCGGGUCUGAUGAGUCCGUGAGGACGAAACAG [C3U C16G] gave a self-cleavage of 0.492. With ACUGGAUGUGCUUUCUGGUCUGAUGAGUCCGUGAGGACGAAACAG [C3U C16U] the self-cleavage was 0.955. Work on ACUGGAAGUGCUUUCCGGUCUGAUGAGUCCGUGAGGACGAAACAG [C3U U7A] yielded a self-cleavage of 1.26. For ACUGGAUGUGCUUUCCGGUCUGAUAAGUCCGUGAGGACGAAACAG [C3U G25A], the self-cleavage was 0.368. ACUGGAUGUGCUUUCCGGUCUGAUCAGUCCGUGAGGACGAAACAG [C3U G25C] showed a self-cleavage of 0.315. ACUGGAUGUGCUUUCCGGUCUGAUUAGUCCGUGAGGACGAAACAG [C3U G25U] showed a self-cleavage of 0.345. ACUGGAUGUGCUUUCCGAUCUGAUGAGUCCGUGAGGACGAAACAG [C3U G18A] showed a self-cleavage of 0.412.
